# Values of other authors, collected in article PMC3264399.
# Key:
# CD46 (Homo sapiens) = CD46 (Homo sapiens) (UniProt P15529)
# ephrin-B3 (Homo sapiens) = ephrin-B3 (Homo sapiens) (UniProt Q15768)
# ephrin-B2 (Homo sapiens) = ephrin-B2 (Homo sapiens) (UniProt P52799)
# ephrin-B2 (Homo sapiens), sequence (P52799 28-333): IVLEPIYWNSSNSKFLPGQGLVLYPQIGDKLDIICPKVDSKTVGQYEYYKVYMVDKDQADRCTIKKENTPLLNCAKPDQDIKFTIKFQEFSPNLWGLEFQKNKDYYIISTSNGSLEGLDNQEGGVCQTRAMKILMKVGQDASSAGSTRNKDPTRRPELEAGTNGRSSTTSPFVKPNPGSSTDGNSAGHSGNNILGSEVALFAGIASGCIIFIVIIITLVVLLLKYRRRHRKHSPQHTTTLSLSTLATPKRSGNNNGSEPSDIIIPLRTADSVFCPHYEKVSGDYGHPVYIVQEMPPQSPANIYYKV
# NiV-G, sequence (Q9IH62 whole entry): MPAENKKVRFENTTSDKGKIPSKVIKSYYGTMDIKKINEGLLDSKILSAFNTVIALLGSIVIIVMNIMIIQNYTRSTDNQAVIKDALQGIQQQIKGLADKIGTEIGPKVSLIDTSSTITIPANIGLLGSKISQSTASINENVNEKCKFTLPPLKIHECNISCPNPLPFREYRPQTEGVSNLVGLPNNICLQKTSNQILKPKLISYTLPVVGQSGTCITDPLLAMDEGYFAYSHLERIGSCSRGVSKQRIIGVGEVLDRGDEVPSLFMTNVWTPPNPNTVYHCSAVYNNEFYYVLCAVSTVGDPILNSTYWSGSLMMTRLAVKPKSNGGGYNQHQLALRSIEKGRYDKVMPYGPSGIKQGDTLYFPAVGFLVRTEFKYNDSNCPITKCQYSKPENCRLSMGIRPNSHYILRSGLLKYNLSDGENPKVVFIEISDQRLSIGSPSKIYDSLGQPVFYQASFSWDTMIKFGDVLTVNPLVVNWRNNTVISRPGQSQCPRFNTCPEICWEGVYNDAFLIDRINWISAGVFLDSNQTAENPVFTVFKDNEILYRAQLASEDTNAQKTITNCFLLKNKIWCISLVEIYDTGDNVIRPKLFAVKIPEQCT
# CD46 (Homo sapiens), sequence (P15529 35-392): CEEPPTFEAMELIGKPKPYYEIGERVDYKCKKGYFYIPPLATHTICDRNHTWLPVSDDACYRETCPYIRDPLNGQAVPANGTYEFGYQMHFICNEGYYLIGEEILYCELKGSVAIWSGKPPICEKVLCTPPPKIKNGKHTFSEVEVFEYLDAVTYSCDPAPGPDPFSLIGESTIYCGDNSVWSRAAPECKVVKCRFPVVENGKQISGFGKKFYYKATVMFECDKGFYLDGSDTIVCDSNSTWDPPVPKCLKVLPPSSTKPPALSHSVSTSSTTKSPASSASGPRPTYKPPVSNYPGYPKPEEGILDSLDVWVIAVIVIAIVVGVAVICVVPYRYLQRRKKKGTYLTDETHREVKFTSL
# MeV-H, sequence (P08362 157-607): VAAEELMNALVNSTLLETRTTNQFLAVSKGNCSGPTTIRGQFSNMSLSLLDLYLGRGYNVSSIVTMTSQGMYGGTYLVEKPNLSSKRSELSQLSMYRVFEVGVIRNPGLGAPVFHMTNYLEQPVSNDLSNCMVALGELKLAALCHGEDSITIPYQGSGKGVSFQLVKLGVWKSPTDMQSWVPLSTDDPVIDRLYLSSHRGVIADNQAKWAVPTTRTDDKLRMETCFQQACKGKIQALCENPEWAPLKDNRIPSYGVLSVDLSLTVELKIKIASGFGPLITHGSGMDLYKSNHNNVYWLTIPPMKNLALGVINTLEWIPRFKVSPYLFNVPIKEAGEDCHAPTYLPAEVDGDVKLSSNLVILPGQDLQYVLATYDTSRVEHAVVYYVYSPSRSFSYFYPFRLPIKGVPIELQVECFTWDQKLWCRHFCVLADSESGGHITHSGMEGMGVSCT
# ephrin-B3 (Homo sapiens), sequence (Q15768 28-340): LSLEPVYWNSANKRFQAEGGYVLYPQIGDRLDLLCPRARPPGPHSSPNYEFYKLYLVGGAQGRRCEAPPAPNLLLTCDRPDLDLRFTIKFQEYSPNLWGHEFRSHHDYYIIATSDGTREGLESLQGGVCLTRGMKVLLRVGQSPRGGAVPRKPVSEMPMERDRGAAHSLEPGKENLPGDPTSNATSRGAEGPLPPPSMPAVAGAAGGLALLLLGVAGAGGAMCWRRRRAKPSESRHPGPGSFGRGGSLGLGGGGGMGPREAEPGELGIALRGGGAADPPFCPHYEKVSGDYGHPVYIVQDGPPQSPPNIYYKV
Substance,Kd (CD46 (Homo sapiens)),Kd (ephrin-B3 (Homo sapiens)),Kd (ephrin-B2 (Homo sapiens))
MeV-H (from UniProt P08362),2200 nM,–,–
NiV-G (from UniProt Q9IH62),–,0.58 nM,0.06 nM
